Experimental data as given in publication doi:10.1101/2022.08.17.504273 (bioRxiv, 2022).
Blank lines part the entries; values can stand above or below the binder they belong to.

B1: GST-CC1B (GST-Psc-DCTN1(residues 350-547)-GFP-6xHis) (domain or fragment)
chain: GSDGAASSYQLKQLEEQNARLKDALVRMRDLSSSEKQEHVKLQKLMEKKNQELEVVRQQRERLQEELSQAESTIDELKEQVDAALGAEEMVEMLTDRNLNLEEKVRELRETVGDLEAMNEMNDELQENARETELELREQLDMAGARVREAQKRVEAAQETVADYQQTIKKYRQLTAHLQDVNRELTNQQEASVERQQQ
B4: JIP3^1–560 (domain or fragment)
chain: MMEIQMDEGGGVVVYQDDYCSGSVMSERVSGLAGSIYREFERLIHCYDEEVVKELMPLVVNVLENLDSVLSENQEHEVELELLREDNEQLLTQYEREKALRRQAEEKFIEFEDALEQEKKELQIQVEHYEFQTRQLELKAKNYADQISRLEERESEMKKEYNALHQRHTEMIQTYVEHIERSKMQQVGGNSQTESSLPGRRKERPTSLNVFPLADGTVRAQIGGKLVPAGDHWHLSDLGQLQSSSSYQCPQDEMSESGQSSAAATPSTTGTKSNTPTSSVPSAAVTPLNESLQPLGDYGVGSKNSKRAREKRDSRNMEVQVTQEMRNVSIGMGSSDEWSDVQDIIDSTPELDMCPETRLDRTGSSPTQGIVNKAFGINTDSLYHELSTAGSEVIGDVDEGADLLGEFSVRDDFFGMGKEVGNLLLENSQLLETKNALNVVKNDLIAKVDQLSGEQEVLRGELEAAKQAKVKLENRIKELEEELKRVKSEAIIARREPKEEAEDVSSYLCTESDKIPMAQRRRFTRVEMARVLMERNQYKERLMELQEAVRWTEMIRASRE
B5: dynein light intermediate chain (natural protein)
chain: MAPVGVEKKLLLGPNGPAVAAAGDLTSEEEEGQSLWSSILSEVSTRARSKLPSGKNILVFGEDGSGKTTLMTKLQGAEHGKKGRGLEYLYLSVHDEDRDDHTRCNVWILDGDLYHKGLLKFAVSAESLPETLVIFVADMSRPWTVMESLQKWASVLREHIDKMKIPPEKMRELERKFVKDFQDYMEPEEGCQGSPQRRGPLTSGSDEENVALPLGDNVLTHNLGIPVLVVCTKCDAVSVLEKEHDYRDEHLDFIQSHLRRFCLQYGAALIYTSVKEEKNLDLLYKYIVHKTYGFHFTTPALVVEKDAVFIPAGWDNEKKIAILHENFTTVKPEDAYEDFIVKPPVRKLVHDKELAAEDEQVFLMKQQSLLAKQPATPTRASESPARGPSGSPRTQGRGGPASVPSSSPGTSVKKPDPNIKNNAASEGVLASFFNSLLSKKTGSPGSPGAGGVQSTAKKSGQKTVLSNVQEELDRMTRKPDSMVTNSSTENEA
B6: LIS1 (full length human) (natural protein)
chain: MVLSQRQRDELNRAIADYLRSNGYEEAYSVFKKEAELDVNEELDKKYAGLLEKKWTSVIRLQKKVMELESKLNEAKEEFTSGGPLGQKRDPKEWIPRPPEKYALSGHRSPVTRVIFHPVFSVMVSASEDATIKVWDYETGDFERTLKGHTDSVQDISFDHSGKLLASCSADMTIKLWDFQGFECIRTMHGHDHNVSSVAIMPNGDHIVSASRDKTIKMWEVQTGYCVKTFTGHREWVRMVRPNQDGTLIASCSNDQTVRVWVVATKECKAELREHEHVVECISWAPESSYSSISEATGSETKKSGKPGPFLLSGSRDKTIKMWDVSTGMCLMTLVGHDNWVRGVLFHSGGKFILSCADDKTLRVWDYKNKRCMKTLNAHEHFVTSLDFHKTAPYVVTGSVDQTVKVWECR

Tests used:
[1] = molecular target: T1, JIP3 RH1 domain (JIP3 1-108) (mouse, UniProt Q9ESN9-5 1-108); assay: pull-down
T1 sequence: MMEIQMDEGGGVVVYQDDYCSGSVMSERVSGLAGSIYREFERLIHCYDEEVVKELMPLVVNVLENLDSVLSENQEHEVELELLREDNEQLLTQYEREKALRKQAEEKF

LIS1 (full length human) = molecular target: B6; assay: pull-down
[2] = molecular target: B1; assay: pull-down
[3] = molecular target: GST-CC1A/B (GST-Psc-DCTN1(residues 214-547)-GFP-6xHis) (human (by the printed UniProt entry), UniProt Q14203-1 214-547); assay: pull-down
[4] = molecular target: dynactin pointed end complex (ZZ-TEV-Arp11, p62, p25, p27) (human, UniProt Q9NZ32;Q9UJW0-1;Q9BTE1;O00399); assay: SEC
Sequence of dynactin pointed end complex (ZZ-TEV-Arp11, p62, p25, p27) (Q9NZ32 whole entry, chain 1 of 4): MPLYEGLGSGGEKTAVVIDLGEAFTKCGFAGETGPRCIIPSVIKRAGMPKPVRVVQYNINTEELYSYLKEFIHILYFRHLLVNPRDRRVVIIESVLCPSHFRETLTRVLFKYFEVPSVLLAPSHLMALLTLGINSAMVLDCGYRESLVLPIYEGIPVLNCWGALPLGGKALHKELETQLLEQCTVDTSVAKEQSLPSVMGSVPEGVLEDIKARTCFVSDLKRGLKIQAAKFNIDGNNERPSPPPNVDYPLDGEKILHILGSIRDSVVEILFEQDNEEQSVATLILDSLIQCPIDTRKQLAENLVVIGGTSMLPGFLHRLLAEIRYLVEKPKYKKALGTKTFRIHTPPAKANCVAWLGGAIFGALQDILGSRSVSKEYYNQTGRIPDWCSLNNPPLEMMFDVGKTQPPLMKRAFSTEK
Sequence of dynactin pointed end complex (ZZ-TEV-Arp11, p62, p25, p27) (Q9UJW0 whole entry, chain 2 of 4): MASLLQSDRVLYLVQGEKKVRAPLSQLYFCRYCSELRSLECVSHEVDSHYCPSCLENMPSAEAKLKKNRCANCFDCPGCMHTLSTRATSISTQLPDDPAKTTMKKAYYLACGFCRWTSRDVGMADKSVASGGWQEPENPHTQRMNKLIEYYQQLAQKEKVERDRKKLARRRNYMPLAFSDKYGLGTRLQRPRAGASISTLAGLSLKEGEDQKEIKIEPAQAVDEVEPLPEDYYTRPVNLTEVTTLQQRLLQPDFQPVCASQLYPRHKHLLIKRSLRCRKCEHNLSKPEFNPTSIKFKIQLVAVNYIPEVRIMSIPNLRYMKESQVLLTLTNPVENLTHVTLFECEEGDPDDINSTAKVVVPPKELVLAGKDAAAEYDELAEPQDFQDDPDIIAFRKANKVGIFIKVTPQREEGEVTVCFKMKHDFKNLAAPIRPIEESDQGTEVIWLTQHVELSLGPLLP
Sequence of dynactin pointed end complex (ZZ-TEV-Arp11, p62, p25, p27) (Q9BTE1 whole entry, chain 3 of 4): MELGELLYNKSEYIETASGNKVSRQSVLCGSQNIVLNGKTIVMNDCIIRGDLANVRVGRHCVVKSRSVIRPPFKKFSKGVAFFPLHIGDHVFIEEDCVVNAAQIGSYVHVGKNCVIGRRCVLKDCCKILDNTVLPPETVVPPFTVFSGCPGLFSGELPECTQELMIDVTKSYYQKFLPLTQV
Sequence of dynactin pointed end complex (ZZ-TEV-Arp11, p62, p25, p27) (O00399 whole entry, chain 4 of 4): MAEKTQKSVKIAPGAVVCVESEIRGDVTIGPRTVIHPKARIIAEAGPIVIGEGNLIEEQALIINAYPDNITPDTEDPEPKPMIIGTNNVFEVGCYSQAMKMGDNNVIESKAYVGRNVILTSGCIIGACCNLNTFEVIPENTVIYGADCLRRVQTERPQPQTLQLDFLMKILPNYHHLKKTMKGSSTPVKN

JIP3^1–560 = molecular target: B4; assay: cryo-EM structure
cryo-EM structure = molecular target: the molecule itself; assay: cryo-EM structure
SEC-MALS = molecular target: the molecule itself; assay: SEC-MALS
[5] = molecular target: T2, mouse JIP3^185–505 (JIP3 186-505) (mouse, UniProt Q9ESN9-5 186-505); assay: pull-down
T2 sequence: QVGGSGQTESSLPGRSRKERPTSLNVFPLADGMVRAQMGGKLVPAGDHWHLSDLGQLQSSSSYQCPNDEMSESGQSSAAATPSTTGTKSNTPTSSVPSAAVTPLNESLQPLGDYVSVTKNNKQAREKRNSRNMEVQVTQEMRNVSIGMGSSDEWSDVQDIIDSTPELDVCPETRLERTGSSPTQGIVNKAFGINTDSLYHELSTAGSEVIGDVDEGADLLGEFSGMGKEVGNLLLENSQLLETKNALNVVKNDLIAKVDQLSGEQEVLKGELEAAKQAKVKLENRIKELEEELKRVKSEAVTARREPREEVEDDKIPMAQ

[6] = molecular target: T3, mouse JIP3 186-505_L383A/E386A (mouse, UniProt Q9ESN9-5 186-505, L383A | E386A); assay: pull-down
T3 sequence: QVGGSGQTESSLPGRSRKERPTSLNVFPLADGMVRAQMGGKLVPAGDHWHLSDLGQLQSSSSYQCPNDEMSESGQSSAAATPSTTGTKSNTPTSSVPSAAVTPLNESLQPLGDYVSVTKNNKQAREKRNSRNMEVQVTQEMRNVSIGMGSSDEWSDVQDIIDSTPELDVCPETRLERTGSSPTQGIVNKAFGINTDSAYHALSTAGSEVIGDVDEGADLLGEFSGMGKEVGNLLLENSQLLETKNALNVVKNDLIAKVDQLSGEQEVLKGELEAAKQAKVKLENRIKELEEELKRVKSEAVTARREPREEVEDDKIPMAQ

[7] = molecular target: B5; assay: cryo-EM structure

- binding result [1]: binds
Binder: SVQEKKKSTIWQFFSRLFSSSSS (domain or fragment) [GST-JIP3^563–585 (JIP3^helix construct)]

Binder: B1
- binding result (LIS1 (full length human)): binds

- binding result [2]: binds
B2: LIS1-N (residues 1-90) (domain or fragment)
chain: MVLSQRQRDELNRAIADYLRSNGYEEAYSVFKKEAELDVNEELDKKYAGLLEKKWTSVIRLQKKVMELESKLNEAKEEFTSGGPLGQKRD

- binding result [3]: binds
- binding result [2]: binds
B3: MBP-DIC-N (dynein intermediate chain 1-76) (domain or fragment)
chain: MSDKSELKAELERKKQRLAQIREEKKRKEEERKKKETDQKKEAVAPVQEESDLEKKRREAEALLQSMGLTPESPIV

Binder: B4
- binding result [4]: binds

Binder: B5
- binding result (JIP3^1–560): binds

Binder: B6
- binding result (cryo-EM structure): binds

B7: LIS1^mut (natural protein)
chain: MVASQEARDELNRAIADYLRSNGYEEAYSVFKKEAELDVNEELDKEYAGLLEEEWAAVAELAEEVMELRSKLNEAKEEFTSGGPLGQKRDPKEWIPRPPEKYALSGHRSPVTRVIFHPVFSVMVSASEDATIKVWDYETGDFERTLKGHTDSVQDISFDHSGKLLASCSADMTIKLWDFQGFECIRTMHGHDHNVSSVAIMPNGDHIVSASRDKTIKMWEVQTGYCVKTFTGHREWVRMVRPNQDGTLIASCSNDQTVRVWVVATKECKAELREHEHVVECISWAPESSYSSISEATGSETKKSGKPGPFLLSGSRDKTIKMWDVSTGMCLMTLVGHDNWVRGVLFHSGGKFILSCADDKTLRVWDYKNKRCMKTLNAHEHFVTSLDFHKTAPYVVTGSVDQTVKVWECR
- stoichiometry N (SEC-MALS): 2

- binding result [5]: binds
- binding result [6]: binds
B8: human Arf6 (12-175_Q67L) (domain or fragment)
chain: KEMRILMLGLDAAGKTTILYKLKLGQSVTTIPTVGFNVETVTYKNVKFNVWDVGGLDKIRPLWRHYYTGTQGLIFVVDCADRDRIDEARQELHRIINDREMRDAIILIFANKQDLPDAMKPHEIQEKLGLTRIRDRNWYVQPSCATSGDGLYEGLTWLTSNYKS

B9: GCN4-WD40-SNAP (other)
chain: GSGSVKQLEDKVEELLSKNAHLENEVARLKKLVSGGPLGQKRDPKEWIPRPPEKYALSGHRSPVTRVIFHPVFSVMVSASEDATIKVWDYETGDFERTLKGHTDSVQDISFDHSGKLLASCSADMTIKLWDFQGFECIRTMHGHDHNVSSVAIMPNGDHIVSASRDKTIKMWEVQTGYCVKTFTGHREWVRMVRPNQDGTLIASCSNDQTVRVWVVATKECKAELREHEHVVECISWAPESSYSSISEATGSETKKSGKPGPFLLSGSRDKTIKMWDVSTGMCLMTLVGHDNWVRGVLFHSGGKFILSCADDKTLRVWDYKNKRCMKTLNAHEHFVTSLDFHKTAPYVVTGSVDQTVKVWECR
- stoichiometry N (SEC-MALS): 2

- binding result [7]: binds
B10: JIP3^1–185 (domain or fragment)
chain: MMEIQMDEGGGVVVYQDDYCSGSVMSERVSGLAGSIYREFERLIHCYDEEVVKELMPLVVNVLENLDSVLSENQEHEVELELLREDNEQLLTQYEREKALRKQAEEKFIEFEDALEQEKKELQIQVEHYEFQTRQLELKAKNYADQISRLEERESEMKKEYNALHQRHTEMIQTYVEHIERSKMQ
